Here are results for 5 molecules from patent US7135326B2, “UDP-glucosyltransferases” (E. I. du Pont de Nemours and Company, priority 2002, dated 2006).

Assay type in all cases: biochemical
Data set [1] in a line: Continuous spectrophotometric UDP-glucosyltransferase assay, formation of pHBA glucose ester at 304 nm, E. coli cell-free extracts. The conditions noted are these: crude extract, 10 mM UDP-glucose, pH 7.3, 25° C. On the procedure:
(§1) For protein production, the resulting recombinant strains were grown at 22° C. in 50 mL of LB media that contained kanamycin (50 μg/mL). At an A600 nm of ˜0.6, isopropyl-1-thio-β-D-galactopyranoside was added to a final concentration of 0.2 mM. Following a 22-h induction period at the same temperature, the cells were harvested by centrifugation and stored at −80° C. for subsequent manipulation as described below.
(§2) The frozen cell pellets were resuspended in 1.0 mL of a solution containing 100 mM Tris-HCl (pH 7.7), 5 mM MgSO4, 1 mM dithiothreitol, 0.03 mg/mL DNAse I, 0.5 mM phenylmethanesulfonyl fluoride, and passed once through a French pressure cell at 20,000 psi. Debris was removed by centrifugation (43,000×g, 60 min), and the resulting cell-free extracts, containing ˜15 mg of protein per mL, were supplemented with 5% glycerol and stored at −80° C. for subsequent measurements of enzyme activities. Protein concentrations were determined by the Bradford Method using bovine serum albumin as a standard.

Data set [2] can be described thus: Continuous spectrophotometric UDP-glucosyltransferase assay, formation of glucose ester of sinapic acid at 368 nm, E. coli cell-free extracts. The conditions noted are these: crude extract, 10 mM UDP-glucose, pH 7.3, 25° C.; for initial rate of product formation, 1 mM SA: 1 mM sinapic acid; for initial rate of product formation, 5 mM SA: 5 mM sinapic acid; for initial rate of product formation, 10 mM SA: 10 mM sinapic acid. On the procedure:
as §1, §2
(§3) The second assay is based on the increase in absorbance at 368 nm that accompanies the formation of the glucose ester of sinapic acid. The experimental conditions were the same as those described above, but the test substrate was sinapic acid and product formation was calculated using an extinction coefficient of 5,570 M^−1 that was obtained with the authentic chemically synthesized compound under identical conditions.

A short description of data set [3]: Ratio of enzyme activity with pHBA versus sinapic acid (spectrophotometric assays). The settings on record: for times more active with sinapic acid than pHBA / pHBA/SA ratio of enzyme activity: crude extract; for Ratio of Activity pHBA/SA: Table 4, cell-free extracts, 10 mM pHBA or sinapic acid, 25° C.; for rate of pHBA glucosylation relative to sinapic acid: cell-free extract. The procedure:
as §3

B1: GT 3: Arabidopsis UDP-glucosyltransferase, GenBank AL161541.2, SEQ ID NO:8 (protein, listed as Arabidopsis thaliana)
chain: MMFETCPSPNPIHVMLVSFQGQGHVNPLLRLGKLIASKGLLVTFVTTELWGKKMRQANKIVDGELKPVGSGSIRFEFFDEEWAEDDDRRADFSLYIAHLESVGIREVSKLVRRYEEANEPVSCLINNPFIPWVCHVAEEFNIPCAVLWVQSCACFSAYYHYQDGSVSFPTETEPELDVKLPCVPVLKNDEIPSFLHPSSRFTGFRQAILGQFKNLSKSFCVLIDSFDSLEQEVIDYMSSLCPVKTVGPLFKVARTVTSDVSGDICKSTDKCLEWLDSRPKSSVVYISFGTVAYLKQEQIEEIAHGVLKSGLSFLWVIRPPPHDLKVETHVLPQELKESSAKGKGMIVDWCPQEQVLSHPSVACFVTHCGWNSTMESLSSGVPVVCCPQWGDQVTDAVYLIDVFKTGVRLGRGATEERVVPREEVAEKLLEATVGEKAEELRKNALKWKAEAEAAVAPGGSSDKNFREFVEKLGAGVTKTKDNGY
Turning to B1, in data set [1], the “initial rate of product formation, 1 mM pHBA” value was 9.4 μM per min; the “initial rate of product formation, 5 mM pHBA” value is given as 42.3 μM per min; the “initial rate of product formation, 10 mM pHBA” value is 64.9 μM per min. For the same molecule, in data set [2], the “initial rate of product formation, 1 mM SA” value stood at 146 μM per min; the “initial rate of product formation, 5 mM SA” value amounted to 158 μM per min; the “initial rate of product formation, 10 mM SA” value is listed as 143 μM per min. For the same molecule, in data set [3] (10 mM substrate), the “times more active with sinapic acid than pHBA” value (shortened to “times more active”) is recorded as “only about twice as active” and the “pHBA/SA ratio of enzyme activity” value was 0.454. Also, the “Ratio of Activity pHBA/SA” value in data set [3] is recorded as 0.454. In data set [3] (1 mM substrate), the “pHBA/SA ratio of enzyme activity” value was determined as 0.064. For the same molecule, in data set [3] (5 mM substrate), the “pHBA/SA ratio of enzyme activity” value was 0.268.

B2: SA-GT: Brassica napus UDP-glucosyltransferase (GenBank Accession No. AF287143), SEQ ID NO:4 (protein, listed as Brassica napus)
chain: MELSSSPLPPHVMLLSFPGQGHVNPLLRLGKLLASKGLLVTFVTTESWGKKMRTANKIQDRALKPIGKGYLRFDFFDDGLPEDDDASRTNLTILRPQLELVGQQEIKNLVKRYKEVMKQPVTCLINNPFVSWVCDVAEDLQIPCAVLWVQSCACLASYYYYHHKLVDFPTETDPKIDVQIPCMPVLKHDEIPSFIHPFSPYSGLREVIIDQIKRLHKPFVVLIDTFYSLEKDIIDHMTNLSRTGVVRPLGPLYKMAKTLICDDIKGDMSETRDDCMEWLDSQPVSSVVYISFGTMAYVTQEQISEIAFGVLNAGVSFLWVIRQQELGVNKERHVLPEELKGKGKVVEWCSQEKVLAHPSVVCFVTHCGWNSTMEALSSGVPTVCFPQWGDQVTDAAYMSDVFKTGVRLSRGETEERVVPREEVAERLREVTKGEKATELKKNALKWKEEAEAAVARRGSSDRNLDEFVEKLCVKHVAKQNGSLNQNGSIQKLLLQKS
Consider B2, for which, in data set [1], the “initial rate of product formation, 1 mM pHBA” value was found to be 0.20 μM per min; the “initial rate of product formation, 5 mM pHBA” value came to 0.59 μM per min; the “initial rate of product formation, 10 mM pHBA” value was 1.03 μM per min. Besides, in data set [2], the “initial rate of product formation, 1 mM SA” value is on record as 118 μM per min; the “initial rate of product formation, 5 mM SA” value is on record as 82 μM per min; the “initial rate of product formation, 10 mM SA” value is on record as 55.6 μM per min. In addition, in data set [3] (10 mM substrate), the “times more active” value is “at least 50 times” and the “pHBA/SA ratio of enzyme activity” value amounted to 0.018. In addition, the “Ratio of Activity pHBA/SA” value in data set [3] is given as 0.018. Further, the “pHBA/SA ratio of enzyme activity” value in data set [3] (1 mM substrate) is reported as 0.002. For the same molecule, in data set [3] (5 mM substrate), the “pHBA/SA ratio of enzyme activity” value stood at 0.007.

B3: Eucalyptus GT: Eucalyptus grandis UDP-glucosyltransferase, SEQ ID NO:22 (protein, listed as Eucalyptus grandis)
chain: MGSEALVHVLLVSFPGQGHVNPLLRLGKRLASKGLLVTFTTPESIGKAMRKASNIGEELSPVGDGFIRFEFFEDGWDEDEIRRQDLDQYLPQLEKVGKVLIPEMIRRNAEQGRPISCLINNPFIPWVSDVADSLGLPSAMLWVQSCACFTSYYYYYHGLVPFPSETAMEIDVQLPCMPLLKHDEVPSFLYPTTPYPFLRRAIMGQYKNLDKPFCILMDTFQELEHEIIEYMSKISPIKTVGPLFKNPKAPNATVKGDFMKADDCVGWLDSKPASSIVYVSFGSVVYLKQDQWDEIAYGLLNSGVNFLWVMKPPHKDSGYEVLKMPEGFLEKAGDRGKVVQWSPQEQVLAHPSVACFVTHCGWNSTMEALTSGMPVVAFPQWGDQVTDAKYLVDVFKVGVRMCRGEAENKLITRDVVEQCLREATSGPKAEEMKQNAMKWSAAAEAAVAEGGSSDRNIQAFVDEVKRRSLEVLAASGKSTANGGADLANKVAANGVAELGEPKVNGELKVVS
With B3, the “rate of pHBA glucosylation relative to sinapic acid” value in data set [3] (10 mM substrate) is listed as “over an order of magnitude greater”. Besides, the “Ratio of Activity pHBA/SA” value in data set [3] stood at 13.2.

B4: Citrus GT: Citrus mitis UDP-glucosyltransferase, SEQ ID NO:31 (protein, listed as Citrus mitis)
chain: MGTESLVHVLLVSFPGHGHVNPLLRLGRLLASKGFFLTLTTPESFGKQMRKAGNFTYEPTPVGDGFIRFEFFEDGWDEDDPGRRDLDQYMAQLELIGKQVIPKIIKKSAEEYRPVSCLINNPFIPWVSDVAESLGLPSAMLWVQSCACFAAYYHYFHGLVPFPSEKEPEIDVQLPCMPLLKHDEVPSFLHPSTPYPFLRRAILGQYENLGKPFCILLDTFYELEKEIIDYMAKICPIKPVGPLFKNPKAPTLTVRDDCMKPDECIDWLDKKPPSSVVYISFGTVVYLKQEQVEEIGYALLNSGISFLWVMKPPPEDSGVKIVDLPDGFLEKVGDKGKVVQWSPQEKVLAHPSVACFVTHCGWNSTMESLASGVPVITFPQWGDQVTDAMYLCDVFKTGLRLCRGEAENRIISRDEVEKCLLEATAGPKAAELKESALKWKQEAEEAVADGGSSDRNIQAFVDEVRRRSVGIITSSKSKSIHRVKELVEKTATATANDKVELVES
For the molecule B4, in data set [3] (10 mM substrate concentration), the “substrate preference for pHBA over sinapic acid” value worked out at 4.88 fold. Further, the “rate of pHBA glucosylation relative to sinapic acid” value in data set [3] (10 mM substrate) was “at least six times faster”. Further, the “Ratio of Activity pHBA/SA” value in data set [3] amounted to 6.35.

B5: GT 4: Arabidopsis UDP-glucosyltransferase, GenBank AL161541, SEQ ID NO:12 (protein, listed as Arabidopsis thaliana)
chain: MNPSRHTHVMLVSFPGQGHVNPLLRLGKLIASKGLLVTFVTTEKPWGKKMRQANKIQDGVLKPVGLGFIRFEFFSDGFADDDEKRFDFDAFRPHLEAVGKQEIKNLVKRYNKEPVTCLINNAFVPWVCDVAEELHIPSAVLWVQSCACLTAYYYYHHRLVKFPTKTEPDISVEIPCLPLLKHDEIPSFLHPSSPYTAFGDIILDQLKRFENHKSFYLFIDTFRELEKDIMDHMSQLCPQAIISPVGPLFKMAQTLSSDVKGDISEPASDCMEWLDSREPSSVVYISFGTIANLKQEQMEEIAHGVLSSGLSVLWVVRPPMEGTFVEPHVLPRELEEKGKIVEWCPQERVLAHPAIACFLSHCGWNSTMEALTAGVPVVCFPQWGDQVTDAVYLADVFKTGVRLGRGAAEEMIVSREVVAEKLLEATVGEKAVELRENARRWKAEAEAAVADGGSSDMNFKEFVDKLVTKHVTREDNGEH
Regarding B5, the “times more active” value in data set [3] (10 mM substrate) is given as “at least 80 times”.
